Consider 41 sequences from the nanobody polyreactivity screen of Harvey et al. (2022).

The nature of the data set: yeast display, Sf9 membrane polyspecificity reagent, FACS + sequencing; frameworks hold sequencing errors. In a few lines:
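After 36–48 hours of galactose induction, yeast (Saccharomyces cerevisiae BJ5465) displaying a synthetic nanobody library were stained at 4 °C for 1 hour with 10% biotinylated, detergent-solubilized Sf9 membrane reagent. Streptavidin microbeads enriched the stained cells before FACS sorting into low and high (top ~1%) gates on anti-HA and streptavidin fluorescence. Each clone's polyreactivity label reflects its gate of origin.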
Take “QVQLVESGGGLVQAGGSLRLSCAASGSIISYYAMGWYRQAPGKERELVAVINSGSTNYADSVKGRFTLSRDNSKNTVYLQMHSLNPEDTAVYYCAAYSLLYLLEQYTTAPYDYWGQGTQVTVSS”: the “polyreactivity (PSR sort gate)” value is “low polyreactivity”. To “QVQLVESGGGLVQPGGSLRLSCAASGSIVKSYAMGWYRQAPGKERELVAAITWRSGRTYYADSVKGRFTISRDNAKNTVYLQMNSLKPEDTAVYYCAADDTSYYIYSYDYWGQGTQVTVSS” belongs “low polyreactivity”; to “QVQLVESGGGLVQAGGSLRLSSAASGRIFDGNAMGGYRQAPGTERELVATINRGARTNYADSVKGRFTISRDNAKNTVYLQMNSLKPEDTAVYYCATSYPGYAYNQAWYPYGYWGQGTQVTVSS”, “low polyreactivity”; to “QLQLVESGGGLVQAGGSLRLSCAASGSIFSRYAMGWYIQAPGKEMELVAGITRGGSTNYADSVKGRFTLSRDNAKNTVYLHMNSLKPEDTAVYYCAKASRRFLTLGYDYWGQGTQVTVSS”, “high polyreactivity”. Take “QGQLVESGGGLVQAGGSLRLSCAASGSIYPLNVMGWYRQSPGKERELVATISKSGGSTYYADSVKGRITISRDNAKNTVYLQMNSLKPEDTGVYNCTVGRYVVGGTSVGYWGQGTQVSVSS”: the “polyreactivity (PSR sort gate)” value is reported as “low polyreactivity”. To “QVQLVESGGGLVQAGGSLRLSCAASGFTFSENAMGWYRQAPGRERELVADIPRSGGNTHYADSEKGRFTISRDNAKNTVYLQMNSLKPEDTAVYYCAARVQWLGYGYYYWGQGTQVTVSS” belongs “high polyreactivity”; to “QVQLEESGGGLVQAGGSLRLSCAASGRTFTSNPMGLYRKAPGKERELVAAISNSGSSTYYADSVKGRFTISRDNAKNTVYLQMNSLKAEDTAVYYCAAYHYRQNTLYYYWGQGTQVTVSS”, “high polyreactivity”. Regarding “QVQLVESGGGLVLAGGSLRLSCAASGGIYTTYAMGWYREAPGKERELVAAISRSGGSTYYADSVKGRFTISRDNAKNTVYLQMNSLKPDDTAVYYCAADQYMCRAWRGRVYYWGQGTQVTVSS”, the “polyreactivity (PSR sort gate)” value is recorded as “high polyreactivity”. To “QVQLVESVGGLVQAGGSLRLSCAASGSTFGRNAMGWYRQAPGKERELVAAISSRGGGTYYADSVKGRFTISRDNAKNTVYLQMNSLKPEDTAVYYCAATYGYRRRNHYNYWGQGTQVTVSS” belongs “high polyreactivity”.

As for “QEQLVESAGGLVQAGGSLRLSCAASGSTFYRYAMGWNRQAPGKERELVAAITSSGGSTYYADSVKGRFTISRDNAKNTVYLQMNRLKPEDTAVYYWNAVRRRQSDYWGQGTQVTVSS”, the “polyreactivity (PSR sort gate)” value is on record as “high polyreactivity”. As to “QVQLVESGGGLVQAGGSLRLRCAASGYTLGPYAMGWYRQAPGKERELVAAISWGGGRTYYADSVKGRFTISRDNAKNTVYLQMNSLKPEDTAVYYCAAKWSHVRDGPKYDYWGQGTQVTVSS”, the “polyreactivity (PSR sort gate)” value was “low polyreactivity”. To “QVQLVESGGGLVQAGGRLRLICAASGRTFVVNAMGWYRQAPGQERELVAAITRRAGITYYADSVKGRFTISRDNAKNTVYLQMNSLKPEDTAVYYCAADRSYFPDTRTTYGYNYWGQGTQVTVSS” belongs “low polyreactivity”; to “QVQLVESGGGLVQAGGSLRLSCAASGITFYEYAMGWYRQAPGKEREFVAAIDDGDSSTYYADSVKGRFTISRDNAKNTVYLQMNSLKPEDTAVYFCNADPYYDYSLNWGDYWGQGTQVTVSS”, “low polyreactivity”. The entry for “QVQLVESGGGLVQAGGSLRLSCAASGSIFSSYAMGWYRQAPGKERELVAAISQSGGDTYYADSVKGRFTISRDIAKNTVYLQMNSLKPEDTAVYYCAACVWYYPMDYWGQGTQGTVSS” is “low polyreactivity”; for “QVQLVESCGGLVQPGGSLRLSCAASGSTFTRYGFGWYRQATGKEREMVAAITTSGSSTYYADSVKGRFTISRDNAKYTVYLQMNSLKPEETAVYYGAADWSSWGFDYWGQGTQVTVSS” it is “low polyreactivity”. The entry for “QVQLVESGGGLVQAGGSLRLSCAASGSTFVVYAMGWSRQAPGKERELVAAISTSDTSTYYADSVKGRFTISRDNAKNTVYLQMNSLKPEDTAVYYCAADGTYVYINEYEYWGQGTQVTVSS” is “low polyreactivity”; for “QVQLVESGGGLVQAGGSLRLSCAASGRTFLKYTLGWYRQAPGKERELVAAISGSGGSTYYADSVKGRFTISRDNAKNTVYLQMNSLKPEDTAVYYCAAAIVRHYQTGYYWGQGTQVTVSS” it is “high polyreactivity”; for “QVQLVESGGGLVQAGGSLRLSCAASGYTFDAYAMGWYRQAHGKERELVAAINYSGGSTYADSVKGRFTISRDNAKNTVYLQMNSLKPEDTAVYYCATRLYGYWPNGFDYWGQGTQVTVSS” it is “low polyreactivity”. For “QVQLVESGGGLVQAGGSLRLSCAASGSIFNRYAMGWYRPAPGKEREFVARISKRGGGTYYADSVKGRFTISRDNAKNTVYLQMNSLKPEDTAVYYCAARAYDHTGHVGFDYWGQGTQVTVSS”, the “polyreactivity (PSR sort gate)” value is recorded as “high polyreactivity”.

For “QVQLVESGGGLVQAGGSLRLSCAASGRILSSNAMGWYRQAPRKERELVAAISWSGGSTYYADSVKGRFTISRDNAKNTVYFQMNSLKPEDTAVYYCAAPFTTTFDYWGKGTQVTVSS”, the “polyreactivity (PSR sort gate)” value is reported as “low polyreactivity”. The entry for “QVQLVESGGGLVQAGGSLRLSCAASGSTIVGYAMGWYRQAPGKERELVAAISRTGASTYYADSVKGRFTISRDNAKNTVYLQMISLKPEDTAVYYCAAGREYWGVTREYWGQGTQVTVSS” is “high polyreactivity”. The entry for “QVQLVESGGGLVQAGGSLRLSCAASGSIFAYYTMGWYRQAPGNERELVATISSGDITNYADSVKGRFTISRDNAKNTVYLQMNSLKPEDTAVYYCAAAELTSYYRTFIHQDYDYWGQGTQVTVSS” is “low polyreactivity”; for “QVQLVESGGGLVQAGGSLRLSCAASGSIFSWYAMGWYRQAPGKERELVAAIRWSGGRTYYADSVKGRFTISRDNAKNTVYLQMNSLKPEDTAVYYCAADFYPDEYYYWGQGTQVTVSS” it is “high polyreactivity”; for “QVQLQESGGGLVQAGGSQRLSCAASGYIFYFQYMGWYRQAPGKELEFVAAISDGANTNYADSVKGRITISRDNAKNTEYLQMNSLKPEDTAVYYCAVYADENDYYIYWGQGTQVTVSS” it is “low polyreactivity”.

On to “QVQLVESGGCLVQAGGSLRLSCAPSGSTFIPNPMGWYRQEPGKERELVAAISRRGGSTNYADSVKGRFTISRDNAKNTVFLQMNSVKPEDTAVYYCAAVSPRRYRYDYWGQGPQVTVSS”, for which the “polyreactivity (PSR sort gate)” value is “low polyreactivity”.

“QVQLVESGGGLVQAGGSLRLSCAASGLIQPYYTMGWYRQAPGKERELVAAIRRTTGSTFYADSVKGRFTISRDNAKNTVYLQMNSLKPEETAVYYCNVRRTPYSHWTGGGMDYWGQGTQVTVSS”: the “polyreactivity (PSR sort gate)” value is given as “high polyreactivity”. To “QVQLVESGGGLVQAGGSLRLSCAASGRTFYGYAIGRYIQAPGNERELVAAISRRGGSTNYADSVKGRFTISRDNAKNTVFLQMNSLKPEDTAVYYCNANYYRTHYDYWGQGTQVTVSS” belongs “high polyreactivity”; to “QVQLVESGGGLVQAGGSLRLSCAASGRIFWYYDMGWYRPAPGKERELVAAISQRGGSTYYADSVKGRFTISRDNAKNTVYLQMNSLKPEDTAVYYCAAYSRYLGPTHHIKYDYWGQGTQVTVSS”, “high polyreactivity”. Turning to “QVQLVESGGGLVQAGGSLRLSCAASGRTFAFYAMGWYRPAPGKERELVASIRGGGGTNYADSVKGRFTISRDNAKNPVYLQMNSVKPEDTAVYYCAARGYGYRGYYYWGQGTQVTVSS”, the “polyreactivity (PSR sort gate)” value is “high polyreactivity”. The entry for “QVQLVESGGGLVQAGGSLRLSCAASGIIFWYYAMGWYRQAPGKERELVAAISGSGGRTYYADSVKGRFTISRDNAKNTVYLQMNSLKPEDTAVYYCNALRAAFYHRARELDYWGQGTQVTVSS” is “high polyreactivity”; for “QVQLVESGGGLVQAGGSLRLSCAASGSILYPYAMGWYRQAPGKEREFVAAITYGGGRTYYADSVKGRFTISRDNEKNTVYLHMNSLKPEDTAVYYCAARYTYSYPLFGSWGQGTQVTVSS” it is “high polyreactivity”; for “QVQLVESGGGLVQAGGSLRLSCAASGRTFVFNGMGWYRPAPGKERELVAAINWDGGDTYYADSVKGRFTISRDNAKNTVYLQMNSLKPEDTAVYYCAAEGIFRYYTQATMEYWGQGTQVTVSS” it is “low polyreactivity”. The entry for “QVQLVESGGGLVQAGGSLRLSCAASGRTSGFNTMGWYRQAPGKERELVAAISFSGGSTYYADSVKGRFTISRDNAKNTVYLQMNSLKPEDTAVYYCNALFRYLYRSGDYWGQGTQVTVSS” is “low polyreactivity”; for “QVQLVESGGGLVQAGGSLRLSCAASGRTFSSYAMGWYRQAPGKERELVAAIRVSGGITYYADSVKGRFTISRDNAKNTVYLQMNSLKPEDTAVYYCNAGVDFIGGSYLKYDYWGQGTKVTVSS” it is “low polyreactivity”; for “QVQLVESGGGLVQAGGSLRLSCAASGSTILYYAMGWYRPAPGKERELVAAITWSGGPTYYADSVKGRFTISRDNAKMSGYLLMTSLKPEDTAVYYCNKADPWLRSTALNPGLYDYWGQGTQVTVSS” it is “high polyreactivity”. The entry for “QVQLVESGGGLVQAGGSLRISCAASGSIFYPYAMGWYRQAPGKERELVAGITYRAGSTYYADSVKGRFTISRDNAKNTVYLQMNSLKPEDTAVYYCAASESYAFDWGQGTQVTVSS” is “high polyreactivity”. As to “QVQLVESEGGLVQAGGSLRLSCAASGRTFHYYAMGWYRQAPGKERELVAAISSTGGSTYYADSVKGRFTISRDNAKNTVYLQMNSLKPEDPAVYYCAARRSRGYSPTYDYWGQGTQVTVSS”, the “polyreactivity (PSR sort gate)” value is “high polyreactivity”. On to “QVQLVESAGGLVQAGGSLRLSCAPSGFIFKHNAMGWYRQAPGKERECVAAISWSGDSTYYADSVKGRFTISRDNAKNTVYLQMNSLKPEDTAVYYCAAVRALRKVRDYYYWGQGTQVTVSS”, for which the “polyreactivity (PSR sort gate)” value is recorded as “high polyreactivity”.

As to “QVQLVESGGGLVQAGGSLRLSCAASGLTFPSNAMGWYRQAPGKERELVAAISKRGGRTFYADSVKGRFTISRDNAKNTVYLQMNSLKPEDTAVYYCATPYAYPGTVQYAGYNYWGQGTQVTVSS”, the “polyreactivity (PSR sort gate)” value is “high polyreactivity”.

In the case of “QVQLVESGGGLVQAGGSLRLSCAASGRIFAYYAMGWYRQAPGQERELVATITGGGDRTYYADSVKGRFTISRDNAKNTLYLQMNSLKPEDTAVYYCNARVWYYSPYYYWGQGTQVTVSS”, the “polyreactivity (PSR sort gate)” value is reported as “low polyreactivity”. To “QGQLVESGGGLVHAGGSLRLSCAASGSIFTGNAMGWYIQAPGKEREMVAAITGRGGNTYYADSVKGRYTISRDNAKNTVYLQMMSLKPEETAGYYCAKVFFHTPIVPEYDYWGQGSQVTVSS” belongs “low polyreactivity”.
